Data as given in PMC3795721, “Screening for Protein-DNA Interactions by Automatable DNA-Protein Interaction ELISA”.

T1: AtbZIP63 (Arabidopsis thaliana, UniProt B9DGI8 1-314)
T1 sequence: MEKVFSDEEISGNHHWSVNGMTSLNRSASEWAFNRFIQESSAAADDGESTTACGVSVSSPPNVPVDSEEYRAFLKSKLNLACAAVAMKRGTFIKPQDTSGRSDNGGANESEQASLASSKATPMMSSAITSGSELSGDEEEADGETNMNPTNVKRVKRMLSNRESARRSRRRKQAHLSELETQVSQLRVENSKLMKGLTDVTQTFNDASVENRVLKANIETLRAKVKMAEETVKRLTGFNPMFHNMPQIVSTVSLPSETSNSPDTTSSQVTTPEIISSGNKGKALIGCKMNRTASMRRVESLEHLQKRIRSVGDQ

T2: AtTIFY1 (Arabidopsis thaliana, UniProt Q9LRH6 1-309)
T2 sequence: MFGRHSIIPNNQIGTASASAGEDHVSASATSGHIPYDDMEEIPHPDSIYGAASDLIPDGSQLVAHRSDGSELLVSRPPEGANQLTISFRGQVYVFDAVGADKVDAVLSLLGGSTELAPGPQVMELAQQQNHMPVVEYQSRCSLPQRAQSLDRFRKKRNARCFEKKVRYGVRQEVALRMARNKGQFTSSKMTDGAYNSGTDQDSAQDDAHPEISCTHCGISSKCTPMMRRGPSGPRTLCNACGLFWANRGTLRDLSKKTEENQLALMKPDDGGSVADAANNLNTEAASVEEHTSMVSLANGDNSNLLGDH

B1: 92 (dsDNA)
DNA 1: AAAAAAAGTCTGCGGCTGCAGGGCGGAAAA
DNA 2: TTTTCCGCCCTGCAGCCGCAGACTTTTTTT
B2: 36 (dsDNA)
DNA 1: AAAAAATTTGGTCTTCGTCCTCGCTTAAAA
DNA 2: TTTTAAGCGAGGACGAAGACCAAATTTTTT
B3: 239 (dsDNA)
DNA 1: AAAAAAGTCGTTACACGTATGCGTGCAAAA
DNA 2: TTTTGCACGCATACGTGTAACGACTTTTTT
B4: 83 (dsDNA)
DNA 1: AAAAAATATGTAGCTGCCGTTACGCTAAAA
DNA 2: TTTTAGCGTAACGGCAGCTACATATTTTTT
B5: 110 (dsDNA)
DNA 1: AAAAAAGCGTAAGCCTTGACAGTCGTAAAA
DNA 2: TTTTACGACTGTCAAGGCTTACGCTTTTTT
B6: 64 (dsDNA)
DNA 1: AAAAAATCGGGCCCCGTTAGCACTCTAAAA
DNA 2: TTTTAGAGTGCTAACGGGGCCCGATTTTTT
B7: 43 (dsDNA)
DNA 1: AAAAAAAGGTCATTGCTGCTGGTGTTAAAA
DNA 2: TTTTAACACCAGCAGCAATGACCTTTTTTT
B8: 117 (dsDNA)
DNA 1: AAAAAAATCAGCCTGACTCTGGGCGTAAAA
DNA 2: TTTTACGCCCAGAGTCAGGCTGATTTTTTT
B9: 202 (dsDNA)
DNA 1: AAAAAAGATTGACTCGTCTTACTCGAAAAA
DNA 2: TTTTTCGAGTAAGACGAGTCAATCTTTTTT
B10: 153 (dsDNA)
DNA 1: AAAAAATGTATTCGTGTCCACTCCATAAAA
DNA 2: TTTTATGGAGTGGACACGAATACATTTTTT
B11: 294 (dsDNA)
DNA 1: AAAAAACGTGCGCGTGCATGTCATCGAAAA
DNA 2: TTTTCGATGACATGCACGCGCACGTTTTTT
B12: 54 (dsDNA)
DNA 1: AAAAAAGTCCGCCCTTAATTCATATTAAAA
DNA 2: TTTTAATATGAATTAAGGGCGGACTTTTTT
B13: 44 (dsDNA)
DNA 1: AAAAAAGTACATGCGTAGATAATGTTAAAA
DNA 2: TTTTAACATTATCTACGCATGTACTTTTTT
B14: 233 (dsDNA)
DNA 1: AAAAAAGGTCCAGTCCACGTCATCAGAAAA
DNA 2: TTTTCTGATGACGTGGACTGGACCTTTTTT
B15: 31 (dsDNA)
DNA 1: AAAAAATCCACGACTCAGCAGCTCTTAAAA
DNA 2: TTTTAAGAGCTGCTGAGTCGTGGATTTTTT
B16: 108 (dsDNA)
DNA 1: AAAAAAGGCGTCTGACTGTAACTCGTAAAA
DNA 2: TTTTACGAGTTACAGTCAGACGCCTTTTTT
B17: 223 (dsDNA)
DNA 1: AAAAAAGGCCACGGTAACCCCTTTTGAAAA
DNA 2: TTTTCAAAAGGGGTTACCGTGGCCTTTTTT
B18: 222 (dsDNA)
DNA 1: AAAAAAGGCGGTCGTAGTTGTGGGAGAAAA
DNA 2: TTTTCTCCCACAACTACGACCGCCTTTTTT
B19: 88 (dsDNA)
DNA 1: AAAAAATCAACCATTATGGTATTACTAAAA
DNA 2: TTTTAGTAATACCATAATGGTTGATTTTTT
B20: 173 (dsDNA)
DNA 1: AAAAAATACATTTGACTTTGGGTTTCAAAA
DNA 2: TTTTGAAACCCAAAGTCAAATGTATTTTTT
B21: 270 (dsDNA)
DNA 1: AAAAAACATGTCGCACCTGTACTAACAAAA
DNA 2: TTTTGTTAGTACAGGTGCGACATGTTTTTT
B22: 32 (dsDNA)
DNA 1: AAAAAACCTACGATGGTTCTGATCTTAAAA
DNA 2: TTTTAAGATCAGAACCATCGTAGGTTTTTT
B23: 313 (dsDNA)
DNA 1: AAAAAATCGCGAACGTACGTCCGCGGAAAA
DNA 2: TTTTCCGCGGACGTACGTTCGCGATTTTTT
B24: 101 (dsDNA)
DNA 1: AAAAAAGTCTAAGGACTTATAGCTGTAAAA
DNA 2: TTTTACAGCTATAAGTCCTTAGACTTTTTT
B25: 97 (dsDNA)
DNA 1: AAAAAAAGTTTGACCTTGGCGTTCGTAAAA
DNA 2: TTTTACGAACGCCAAGGTCAAACTTTTTTT
B26: 195 (dsDNA)
DNA 1: AAAAAATGGTCGTCGTACTCGTGGTCAAAA
DNA 2: TTTTGACCACGAGTACGACGACCATTTTTT
B27: 282 (dsDNA)
DNA 1: AAAAAACAGGCCGATTCCGATCCCGGAAAA
DNA 2: TTTTCCGGGATCGGAATCGGCCTGTTTTTT
B28: 259 (dsDNA)
DNA 1: AAAAAAGTAGGTGCTGATGCTGGCCGAAAA
DNA 2: TTTTCGGCCAGCATCAGCACCTACTTTTTT
B29: 287 (dsDNA)
DNA 1: AAAAAACACGCCATTGACACTGGTAAAAAA
DNA 2: TTTTTTACCAGTGTCAATGGCGTGTTTTTT
B30: 201 (dsDNA)
DNA 1: AAAAAAGATCTAGGCCTTGGGACTCAAAAA
DNA 2: TTTTTGAGTCCCAAGGCCTAGATCTTTTTT
B31: 109 (dsDNA)
DNA 1: AAAAAATACGTCTACGTGGTTGTCGTAAAA
DNA 2: TTTTACGACAACCACGTAGACGTATTTTTT
B32: 260 (dsDNA)
DNA 1: AAAAAAGTATAACGTGTTGTTGACCGAAAA
DNA 2: TTTTCGGTCAACAACACGTTATACTTTTTT
B33: 234 (dsDNA)
DNA 1: AAAAAAGGTCTGGACGATCACCGGGAAAAA
DNA 2: TTTTTCCCGGTGATCGTCCAGACCTTTTTT
B34: 246 (dsDNA)
DNA 1: AAAAAACTGACCGTCAGCGCCCACGCAAAA
DNA 2: TTTTGCGTGGGCGCTGACGGTCAGTTTTTT
B35: 57 (dsDNA)
DNA 1: AAAAAAAATTAGTCTCTTCGTCTCCCAAAA
DNA 2: TTTTGGGAGACGAAGAGACTAATTTTTTTT
B36: 137 (dsDNA)
DNA 1: AAAAAAACTCTAGGTCAATATTATTCAAAA
DNA 2: TTTTGAATAATATTGACCTAGAGTTTTTTT
B37: 124 (dsDNA)
DNA 1: AAAAAAACTCACGGCGTCACTATGGTAAAA
DNA 2: TTTTACCATAGTGACGCCGTGAGTTTTTTT
B38: 91 (dsDNA)
DNA 1: AAAAAAAGTGGCCGCTAGTCAACTCAAAAA
DNA 2: TTTTTGAGTTGACTAGCGGCCACTTTTTTT
B39: 271 (dsDNA)
DNA 1: AAAAAACGTTGAACCTGGGCCTCAACAAAA
DNA 2: TTTTGTTGAGGCCCAGGTTCAACGTTTTTT
B40: 276 (dsDNA)
DNA 1: AAAAAACATCGCTGTCGTTGACGTTGAAAA
DNA 2: TTTTCAACGTCAACGACAGCGATGTTTTTT

What was measured:
Assay in all cases: DPI-ELISA; DPI-ELISA, streptavidin 384-well plate, 1-2 pmol biotinylated dsDNA per well, crude native E. coli extract, anti-His detection; buffer as in Brand et al. [46],; high values mean tight binding
[1] = target: WRKY33 cDBD (Arabidopsis thaliana, UniProt Q8S8P5 345-449); conditions: tags: C-terminal His (pET-DEST42); label: 5' biotin on forward strand
Sequence of WRKY33 cDBD (Q8S8P5 other isoform, or with tags, fused parts or gaps): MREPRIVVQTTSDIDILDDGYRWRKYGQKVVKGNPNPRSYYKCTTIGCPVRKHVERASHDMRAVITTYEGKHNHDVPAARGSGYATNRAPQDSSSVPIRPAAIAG

[2] = target: T1, AtbZIP63; conditions: tags: C-terminal His (pET-DEST42); chain copies: 2; label: 5' biotin on forward strand
[3] = target: T2, AtTIFY1; conditions: tags: C-terminal His (pET-DEST42); label: 5' biotin on forward strand

| Binder | binding signal [1] | binding signal [2] | binding signal [3] |
| --- | --- | --- | --- |
| B1 | 2.36 relative normalized absorbance | – | – |
| B2 | 2.17 relative normalized absorbance | – | – |
| B3 | 2.32 relative normalized absorbance | 2.62 relative normalized absorbance | – |
| B4 | 2.34 relative normalized absorbance | – | – |
| B5 | – | 1.94 relative normalized absorbance | – |
| B6 | – | 2.04 relative normalized absorbance | – |
| B7 | 2.19 relative normalized absorbance | – | – |
| B8 | 2.01 relative normalized absorbance | – | – |
| B9 | 2.3 relative normalized absorbance | 2.68 relative normalized absorbance | – |
| B10 | – | 1.89 relative normalized absorbance | – |
| B11 | – | 1.97 relative normalized absorbance | – |
| B12 | 2.35 relative normalized absorbance | – | – |
| B13 | – | 2.11 relative normalized absorbance | – |
| B14 | 2.34 relative normalized absorbance | 2.57 relative normalized absorbance | – |
| B15 | – | 2.32 relative normalized absorbance | – |
| B16 | 2.35 relative normalized absorbance | 2.54 relative normalized absorbance | – |
| B17 | – | 2.06 relative normalized absorbance | – |
| B18 | 2.35 relative normalized absorbance | – | – |
| B19 | 2.02 relative normalized absorbance | – | – |
| B20 | 2.31 relative normalized absorbance | – | – |

| Binder | binding signal [1] | binding signal [2] | binding signal [3] |
| --- | --- | --- | --- |
| B21 | – | 1.93 relative normalized absorbance | – |
| B22 | – | – | 1.8 relative normalized absorbance |
| B23 | – | 2.62 relative normalized absorbance | – |
| B24 | 2.37 relative normalized absorbance | – | – |
| B25 | 2.28 relative normalized absorbance | – | – |
| B26 | 2.34 relative normalized absorbance | – | – |
| B27 | – | – | 1.83 relative normalized absorbance |
| B28 | – | 1.92 relative normalized absorbance | – |
| B29 | – | 1.99 relative normalized absorbance | – |
| B30 | – | – | 1.81 relative normalized absorbance |
| B31 | – | 2.98 relative normalized absorbance | – |
| B32 | 2.33 relative normalized absorbance | – | – |
| B33 | – | – | 1.7 relative normalized absorbance |
| B34 | 2.09 relative normalized absorbance | 1.96 relative normalized absorbance | – |
| B35 | 2.01 relative normalized absorbance | – | – |
| B36 | 2.3 relative normalized absorbance | – | – |
| B37 | – | 2.46 relative normalized absorbance | – |
| B38 | 2.25 relative normalized absorbance | – | – |
| B39 | 2.33 relative normalized absorbance | – | – |
| B40 | 2.34 relative normalized absorbance | 2.02 relative normalized absorbance | – |
